[ ]: non-standard residue; d: D form. pS = N[C@@H](COP(=O)(O)O)C(=O)O
T1: 14-3-3σ Clu3 (1-231) (human, UniProt P31947 1-231, 75EEK77 → AAA)
T1 sequence: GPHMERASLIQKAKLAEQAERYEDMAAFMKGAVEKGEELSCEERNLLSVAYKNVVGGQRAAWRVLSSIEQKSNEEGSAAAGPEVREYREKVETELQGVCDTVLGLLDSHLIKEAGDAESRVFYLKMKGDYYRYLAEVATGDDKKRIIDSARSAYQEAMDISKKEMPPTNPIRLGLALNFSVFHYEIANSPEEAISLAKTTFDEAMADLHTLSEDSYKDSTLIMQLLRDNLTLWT

T2: 14-3-3σ WT (1-231) (human, UniProt P31947 1-231)
T2 sequence: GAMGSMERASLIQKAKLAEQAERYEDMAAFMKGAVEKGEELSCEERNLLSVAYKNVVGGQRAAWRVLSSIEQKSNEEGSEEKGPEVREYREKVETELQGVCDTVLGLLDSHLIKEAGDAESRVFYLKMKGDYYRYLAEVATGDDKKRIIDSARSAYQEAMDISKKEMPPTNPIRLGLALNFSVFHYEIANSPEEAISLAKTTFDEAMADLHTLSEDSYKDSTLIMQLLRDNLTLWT

B1: pHSPB6(13-20) phosphopeptide (peptide, UniProt O14558 13-20, looked up)
peptide: H-RRA[pS]APLP-OH
SMILES: CC(C)C[C@H](NC(=O)[C@@H]1CCCN1C(=O)[C@H](C)NC(=O)[C@H](COP(=O)(O)O)NC(=O)[C@H](C)NC(=O)[C@H](CCCNC(=N)N)NC(=O)[C@@H](N)CCCNC(=N)N)C(=O)N1CCC[C@H]1C(=O)O
B2: AEDANS-labeled phosphorylated full-length HSPB6 (natural protein, human, UniProt O14558 1-160, looked up)
chain: MEIPVPVQPSWLRRASAPLPGLSAPGRLFDQRFGEGLLEAELAALCPTTLAPYYLRAPSVALPVAQVPTDPGHFSVLLDVKHFSPEEIAVKVVGEHVEVHARHEERPDEHGFVAREFHRRYRLPPGVDPAAVTSALSPEGVLSIQAAPASAQAPPPAAAK
modifications: phosphoserine at 16; 1,5-I-AEDANS moiety on Cys46 (extent of labeling 90%)

Assays:
14-3-3σ Clu3 (1-231) = target: T1, 14-3-3σ Clu3 (1-231); assay: crystal structure
14-3-3σ WT (1-231) = target: T2, 14-3-3σ WT (1-231); assay: other fluorescence titration

Binder | binding result (14-3-3σ Clu3 (1-231)) | Kd (14-3-3σ WT (1-231)) [nM]
B1 | binds | 
B2 |  | 560 ± 200
